Measured values: patent CN112972675A

Biological target: 人PD-1 (程序性死亡受体1) (human) (UniProt Q15116)
Test: flow cytometry receptor occupancy on patients' peripheral blood T lymphocytes (CD45RA-); bound toripalimab detected with PE-labelled anti-human IgG4 Fc, total PD-1 after saturation with toripalimab; dose groups 1, 3 and 10 mg/kg Q2W

Chain of UniProt Q15116 (Q15116 25-288): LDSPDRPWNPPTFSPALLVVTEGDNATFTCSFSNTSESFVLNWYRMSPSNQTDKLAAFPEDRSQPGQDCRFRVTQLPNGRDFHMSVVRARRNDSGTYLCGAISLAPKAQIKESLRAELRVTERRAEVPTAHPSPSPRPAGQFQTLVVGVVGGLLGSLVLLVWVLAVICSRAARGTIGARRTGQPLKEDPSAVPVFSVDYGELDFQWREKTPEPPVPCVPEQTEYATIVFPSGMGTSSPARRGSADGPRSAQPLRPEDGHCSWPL

特瑞普利单抗(Toripalimab) (antibody) gave a PD-1受体占位率(RO) greater than 80%.
